{"source": "patent US20150301068A1", "about": "(VIB VZW, published 2015)", "target": "the molecule itself", "assay": "Western blot of HEK lysates after detergents, 95 C and beta-mercaptoethanol; homodimer band at about 50 kDa"}
{"protein": "tetraspanin 6 (TSPAN6) (other, Endogenous TSPAN6 in HEK cell lysates, exosomes and human CSF, on Western blots; also called tetraspanin TM4-D; tetraspanin TM4SF) MASPSRRLQTKPVITCFKSVLLIYTFIFWITGVILLAVGIWGKVSLENYFSLLNEKATNVPFVLIATGTVIILLGTFGCFATCRASAWMLKLYAMFLTLVFLVELVAAIVGFVFRHEIKNSFKNNYEKALKQYNSTGDYRSHAVDKIQNTLHCCGVTDYRDWTDTNYYSEKGFPKSCCKLEDCTPQRDADKVNNEGCFIKVMTIIESEMGVVAGISFGVACFQLIGIFLAYCLSRAITNNQYEIV", "values": [{"measurement": "binding result", "result": "binds"}]}
